This is an account of results in patent US10030233B2, “Modified P450 reductase with N-terminal deletions and endoplasmic reticulum retention tag” (DE MONTFORT UNIVERSITY, priority 2013, dated 2018).

The test system of one series is CYP2D6. The series is described as follows: Amount of CYP2D6 in yeast microsomes by CO-difference spectra, co-expressed with P450 reductase variants. The format is cell-based, human. Particulars: relative to hRD = 1; genes synthesized using yeast biased codons; yeast W303B, pSYE264. The protocol: The hRD variant genes, (ΔN1hRD-M, ΔN1hRD-HDEL, ΔN2hRD-HDEL), were integrated into Saccharomyces cerevisiae strain W303B (MAT a leu2 his3 trp1 can1-100 ade2 trp1 ura3) using standard yeast transformation procedures as detailed below. The integrating plasmids, bearing the ΔN1hRD-M, ΔN1hRD-HDEL, ΔN2hRD-HDEL genes, were first linearised with the restriction enzyme BstEII before introducing linearised DNA into yeast cells via homologous recombination. The resultant strains were named: • a) W303B-ΔN1hRD-M, • b) W303B-ΔN1hRD-HDEL, • c) W303B-ΔN2hRD-HDEL.
They were used for the transformation of the yeast episomal plasmids that bear the CYP2D6 and CYP1A2 genes: • 1. pSYE264 (bearing the human CYP2D6 gene), • 2. pSYE265 (bearing the human CYP1A2 gene).
A single colony from the strains W303B-ΔN1hRD-M, W303B-ΔN1hRD-HDEL, W303B-ΔN2hRD-HDEL were picked up from a minimal medium (SD) plate (supplemented with appropriate nutrients depending on the auxotrophic markers in the yeast strain) and inoculated into 10 ml of YPD medium (2% Bacto Peptone, 1% yeast extract, 2% glucose). The cells were grown overnight at 30° C. with 220 rpm shaking. 1.5 ml of overnight cultures were centrifuged at 13,000 rpm for a few seconds to collect the cell pellets. 0.5-2 μg of transforming DNA (i.e. the CYP bearing expression plasmids, pSYE264 and pSYE265) and 100 μg of single-stranded salmon sperm DNA were added to pellets and vortexed briefly. 500 μl of PEG solution (40% PEG 3350, 0.1M lithium acetate pH 7.5, 10 mM Tris-HCl pH 7.5, 1 mM EDTA pH7.5) and 5-10% DMSO were added to transformation mixes. All mixes were incubated in a Thermo-mixer for 15 min at 25° C. with shaking at 400 rpm, and then were heat shocked for 15 min at 42° C. After 10 min, 5-10% ethanol was added. The cells were pelleted at 8000 rpm for 1 min and were washed twice in 1×TE buffer and re-suspended in 250 μl-500 μl 1×TE pH7.5. The cells were plated out on SD agar medium and incubated at 30° C. for 2-3 days.
Recombinant yeast cells were grown in culture using the following protocol: • 1. […] On day two, once OD600 (i.e. OD measured at 600 nm) of the cultures reached 5 to 6 OD-s, the cultures were inoculated into 400 ml YPD medium (1% Bacto Peptone, 1% yeast extract, 2% glucose) with appropriate nutrients in 2-liter flask. […] On day three, after 16 hours, optical density was again measured at 600 nm after diluting the original culture 1:10. […] At the final step, supernatant was poured away and the dry pellet was frozen at −80° C. and the pellet weight was recorded. […]
The cell pellet that had been obtained from the earlier cell culture was weighed and the weight of cell pellet was recorded. […]

A further series deals with yeast cells. Put plainly: Dihydroethidium assay for ROS detection in yeast cells expressing a P450 reductase. The conditions noted are these: gene synthesized using yeast-biased codons compared with ΔN1hRD-M gene isolated from human liver cDNA library; FIG. 13. Type of series: cell-based, Saccharomyces cerevisiae. The protocol:
The reactive oxygen species generated in yeast cells due to expression of a P450 reductase were assessed using dihydroethidium fluorescence assay. Reactive oxygen species reacts with dihydroethidium to produce ethidium bromide which binds to the nuclear DNA and emits red fluorescence. Dihydroethidine is one of the best reagents available for measuring intracellular production of reactive oxygen species. After overnight induction of a P450 reductase, the cultures were analysed for induction of reactive oxygen species. The control (wt-hRD) and test (ΔN1hRD-M, ΔN1hRD-HDEL, ΔN2hRD-HDEL) yeast cultures were washed in sterile PBS and then incubated with dihydroethidium (5 μM final concentration) for 30 min. After washing with sterile PBS twice (to remove the extracellular dye), the samples were transferred into 96-well black plates with transparent bottom (COSTAR®). Fluorescence was measured using a BIO-TEK® plate reader. Excitation and emission wavelengths were 260 and 610 nm respectively. The percent induction in the formation of reactive oxygen species was calculated by comparing with cultures where genes were not induced.

Another series has as its system CYP. Put plainly: CYP specific activity on co-expression of a CYP with the reductase. Type of series: biochemical. Particulars: co-expressed with a CYP. From the text:
The activity of cytochrome P450 may be measured by the EROD assay or by other assays known in the art. The expression of cytochrome P450 may be measured using CO-difference spectra as is known in the art and is described in the examples herein.

B1: hRD: wild-type human P450 reductase, full length, control (protein, listed as Homo sapiens)
chain: MGDSHVDTSSTVSEAVAEEVSLFSMTDMILFSLIVGLLTYWFLFRKKKEEVPEFTKIQTLTSSVRESSFVEKMKKTGRNIIVFYGSQTGTAEEFANRLSKDAHRYGMRGMSADPEEYDLADLSSLPEIDNALVVFCMATYGEGDPTDNAQDFYDWLQETDVDLSGVKFAVFGLGNKTYEHFNAMGKYVDKRLEQLGAQRIFELGLGDDDGNLEEDFITWREQFWPAVCEHFGVEATGEESSIRQYELVVHTDIDAAKVYMGEMGRLKSYENQKPPFDAKNPFLAAVTTNRKLNQGTERHLMHLELDISDSKIRYESGDHVAVYPANDSALVNQLGKILGADLDVVMSLNNLDEESNKKHPFPCPTSYRTALTYYLDITNPPRTNVLYELAQYASEPSEQELLRKMASSSGEGKELYLSWVVEARRHILAILQDCPSLRPPIDHLCELLPRLQARYYSIASSSKVHPNSVHICAVVVEYETKAGRINKGVATNWLRAKEPAGENGGRALVPMFVRKSQFRLPFKATTPVIMVGPGTGVAPFIGFIQERAWLRQQGKEVGETLLYYGCRRSDEDYLYREELAQFHRDGALTQLNVAFSREQSHKVYVQHLLKQDREHLWKLIEGGAHIYVCGDARNMARDVQNTFYDIVAELGAMEHAQAVDYIKKLMTKGRYSLDVWS
For the molecule B1, in the series with CYP2D6, the “Relative Amounts of CYP2D6 Obtained” value was determined as 1.

B2: ΔN2hRD-HDEL: human P450 reductase lacking the 54-amino acid membrane anchoring region, with C-terminal yeast ER retention signal HDEL (protein)
chain: MTKIQTLTSSVRESSFVEKMKKTGRNIIVFYGSQTGTAEEFANRLSKDAHRYGMRGMSADPEEYDLADLSSLPEIDNALVVFCMATYGEGDPTDNAQDFYDWLQETDVDLSGVKFAVFGLGNKTYEHFNAMGKYVDKRLEQLGAQRIFELGLGDDDGNLEEDFITWREQFWPAVCEHFGVEATGEESSIRQYELVVHTDIDAAKVYMGEMGRLKSYENQKPPFDAKNPFLAAVTTNRKLNQGTERHLMHLELDISDSKIRYESGDHVAVYPANDSALVNQLGKILGADLDVVMSLNNLDEESNKKHPFPCPTSYRTALTYYLDITNPPRTNVLYELAQYASEPSEQELLRKMASSSGEGKELYLSWVVEARRHILAILQDCPSLRPPIDHLCELLPRLQARYYSIASSSKVHPNSVHICAVVVEYETKAGRINKGVATNWLRAKEPAGENGGRALVPMFVRKSQFRLPFKATTPVIMVGPGTGVAPFIGFIQERAWLRQQGKEVGETLLYYGCRRSDEDYLYREELAQFHRDGALTQLNVAFSREQSHKVYVQHLLKQDREHLWKLIEGGAHIYVCGDARNMARDVQNTFYDIVAELGAMEHAQAVDYIKKLMTKGRYSLDVWSHDEL
modifications: delN2hRD-HDEL
notes: human P450 reductase lacking the 54-amino acid membrane anchoring region, with C-terminal yeast ER retention signal HDEL
As to B2, the “Relative Amounts of CYP2D6 Obtained” value in the series with CYP2D6 is reported as 4.0 ± 10%.

B3: ΔN1hRD-HDEL: human P450 reductase lacking N-terminal 24 amino acids, with C-terminal yeast ER retention signal HDEL (protein)
chain: MTDMILFSLIVGLLTYWFLFRKKKEEVPEFTKIQTLTSSVRESSFVEKMKKTGRNIIVFYGSQTGTAEEFANRLSKDAHRYGMRGMSADPEEYDLADLSSLPEIDNALVVFCMATYGEGDPTDNAQDFYDWLQETDVDLSGVKFAVFGLGNKTYEHFNAMGKYVDKRLEQLGAQRIFELGLGDDDGNLEEDFITWREQFWPAVCEHFGVEATGEESSIRQYELVVHTDIDAAKVYMGEMGRLKSYENQKPPFDAKNPFLAAVTTNRKLNQGTERHLMHLELDISDSKIRYESGDHVAVYPANDSALVNQLGKILGADLDVVMSLNNLDEESNKKHPFPCPTSYRTALTYYLDITNPPRTNVLYELAQYASEPSEQELLRKMASSSGEGKELYLSWVVEARRHILAILQDCPSLRPPIDHLCELLPRLQARYYSIASSSKVHPNSVHICAVVVEYETKAGRINKGVATNWLRAKEPAGENGGRALVPMFVRKSQFRLPFKATTPVIMVGPGTGVAPFIGFIQERAWLRQQGKEVGETLLYYGCRRSDEDYLYREELAQFHRDGALTQLNVAFSREQSHKVYVQHLLKQDREHLWKLIEGGAHIYVCGDARNMARDVQNTFYDIVAELGAMEHAQAVDYIKKLMTKGRYSLDVWSHDEL
modifications: delN1hRD-HDEL
notes: human P450 reductase lacking N-terminal 24 amino acids, with C-terminal yeast ER retention signal HDEL
For the molecule B3, the “Relative Amounts of CYP2D6 Obtained” value in the series with CYP2D6 is 3.8 ± 10%.

B4: ΔN1hRD-M: human P450 reductase lacking N-terminal 24 amino acids, with C-terminal 12-amino acid c-myc tag; described in WO 2007/129050; gene SEQ ID NO: 5 (protein)
chain: MTDMILFSLIVGLLTYWFLFRKKKEEVPEFTKIQTLTSSVRESSFVEKMKKTGRNIIVFYGSQTGTAEEFANRLSKDAHRYGMRGMSADPEEYDLADLSSLPEIDNALVVFCMATYGEGDPTDNAQDFYDWLQETDVDLSGVKFAVFGLGNKTYEHFNAMGKYVDKRLEQLGAQRIFELGLGDDDGNLEEDFITWREQFWPAVCEHFGVEATGEESSIRQYELVVHTDIDAAKVYMGEMGRLKSYENQKPPFDAKNPFLAAVTTNRKLNQGTERHLMHLELDISDSKIRYESGDHVAVYPANDSALVNQLGKILGADLDVVMSLNNLDEESNKKHPFPCPTSYRTALTYYLDITNPPRTNVLYELAQYASEPSEQELLRKMASSSGEGKELYLSWVVEARRHILAILQDCPSLRPPIDHLCELLPRLQARYYSIASSSKVHPNSVHICAVVVEYETKAGRINKGVATNWLRAKEPAGENGGRALVPMFVRKSQFRLPFKATTPVIMVGPGTGVAPFIGFIQERAWLRQQGKEVGETLLYYGCRRSDEDYLYREELAQFHRDGALTQLNVAFSREQSHKVYVQHLLKQDREHLWKLIEGGAHIYVCGDARNMARDVQNTFYDIVAELGAMEHAQAVDYIKKLMTKGRYSLDVWSSSEQKLISEEDLNGSRL
modifications: delN1hRD-M
In the case of B4, the “Relative Amounts of CYP2D6 Obtained” value with CYP2D6 stood at 3 ± 10%. In addition, the ROS produced result in the series with yeast cells was “far less ROS”. For the same molecule, the CYP specific activities entry with CYP was “higher CYP specific activities”.
